Assay results from patent US20260167699A1 (Chugai, published 2026).

Legend:
Assay in all cases: SPR, vs GpH7-A5/GpH7-B3/GpL16-k0 =100
[1] = biological target: T1, FcγRIIa(H) extracellular domain, His-tagged (human, UniProt P12318 34-217)
T1 construct: extracellular domain; also called 2aH
T1 sequence: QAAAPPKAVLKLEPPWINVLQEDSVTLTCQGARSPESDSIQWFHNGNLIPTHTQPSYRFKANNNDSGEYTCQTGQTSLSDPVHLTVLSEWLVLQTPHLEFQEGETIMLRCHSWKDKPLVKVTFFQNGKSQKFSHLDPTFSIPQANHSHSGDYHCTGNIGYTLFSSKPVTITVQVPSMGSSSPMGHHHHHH

[2] = biological target: T2, FcγRIIa(R) extracellular domain, His-tagged (human, UniProt P12318 34-217)
T2 construct: extracellular domain; also called 2aR
T2 sequence: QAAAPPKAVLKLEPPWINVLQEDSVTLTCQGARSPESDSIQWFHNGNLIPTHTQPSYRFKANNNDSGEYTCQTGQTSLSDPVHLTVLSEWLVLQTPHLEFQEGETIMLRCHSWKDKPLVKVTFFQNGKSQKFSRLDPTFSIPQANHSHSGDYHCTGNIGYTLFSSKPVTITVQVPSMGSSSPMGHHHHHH

[3] = biological target: T3, FcγRIIb extracellular domain, His-tagged (human, UniProt P31994 43-217)
T3 construct: extracellular domain; also called 2b
T3 sequence: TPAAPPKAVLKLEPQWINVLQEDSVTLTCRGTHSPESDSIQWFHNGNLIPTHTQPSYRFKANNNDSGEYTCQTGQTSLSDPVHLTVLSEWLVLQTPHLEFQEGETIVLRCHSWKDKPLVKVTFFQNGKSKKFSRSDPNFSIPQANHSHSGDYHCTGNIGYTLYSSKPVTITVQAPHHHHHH

[4] = biological target: T4, FcγRIa extracellular domain, His-tagged (human, UniProt P12314 16-292)
T4 construct: extracellular domain; also called 1a

[5] = biological target: T5, FcγRIIIa extracellular domain, His-tagged (human, UniProt P08637 17-208)
T5 construct: extracellular domain; also called 3a
T5 sequence (P08637 other isoform, or with tags, fused parts or gaps): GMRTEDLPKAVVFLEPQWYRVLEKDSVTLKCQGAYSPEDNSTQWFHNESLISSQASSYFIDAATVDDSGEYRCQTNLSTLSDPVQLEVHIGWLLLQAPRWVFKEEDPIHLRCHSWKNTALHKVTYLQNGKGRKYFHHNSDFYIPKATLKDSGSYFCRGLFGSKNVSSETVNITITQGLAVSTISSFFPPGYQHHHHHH

T4 sequence (P12314 other isoform, or with tags, fused parts or gaps): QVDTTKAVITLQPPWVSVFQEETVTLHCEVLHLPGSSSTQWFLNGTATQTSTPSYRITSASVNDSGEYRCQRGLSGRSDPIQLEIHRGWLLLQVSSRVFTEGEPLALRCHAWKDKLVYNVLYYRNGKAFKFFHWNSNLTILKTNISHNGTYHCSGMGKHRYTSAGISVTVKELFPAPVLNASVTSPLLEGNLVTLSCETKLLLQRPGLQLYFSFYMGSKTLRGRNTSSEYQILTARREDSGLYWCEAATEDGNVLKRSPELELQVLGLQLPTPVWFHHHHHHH

B1: GpH7-A5/GpH7-B3 variant P238_09D/GpL16-k0 (antibody, human IgG1, kappa)
heavy 1: not shown
heavy 2: not shown
light: DIVMTQSPLSLPVTPGEPASISCQASESLVHSNRNTYLHWYLQKPGQSPQLLIYKVSNRFSGVPDRFSGSGSGTDFTLKISRVEAEDVGVYYCSQNTHVPPTFGQGTKVEIERTVAAPSVFIFPPSDEQLKSGTASVVCLLNNFYPREAKVQWKVDNALQSGNSQESVTEQDSKDSTYSLSSTLTLSKADYEKHKVYACEVTHQGLSSPVTKSFNRGEC
[1]
  He/Con 2aH: 84.7 % of control
[2]
  He/Con 2aR: 140 % of control
[3]
  He/Con 2b: 224 % of control
[4]
  He/Con 1a: 99 % of control
[5]
  He/Con 3a: 100 % of control

B2: GpH7-A5/GpH7-B3 variant P271_08L/GpL16-k0 (antibody, human IgG1, kappa)
heavy 1: not shown
heavy 2: not shown
light: DIVMTQSPLSLPVTPGEPASISCQASESLVHSNRNTYLHWYLQKPGQSPQLLIYKVSNRFSGVPDRFSGSGSGTDFTLKISRVEAEDVGVYYCSQNTHVPPTFGQGTKVEIERTVAAPSVFIFPPSDEQLKSGTASVVCLLNNFYPREAKVQWKVDNALQSGNSQESVTEQDSKDSTYSLSSTLTLSKADYEKHKVYACEVTHQGLSSPVTKSFNRGEC
[1]
  He/Con 2aH: 99.4 % of control
[2]
  He/Con 2aR: 103 % of control
[3]
  He/Con 2b: 115 % of control
[4]
  He/Con 1a: 101 % of control
[5]
  He/Con 3a: 74.5 % of control

B3: GpH7-A5/GpH7-B3 variant P271_10E/GpL16-k0 (antibody, human IgG1, kappa)
heavy 1: not shown
heavy 2: not shown
light: DIVMTQSPLSLPVTPGEPASISCQASESLVHSNRNTYLHWYLQKPGQSPQLLIYKVSNRFSGVPDRFSGSGSGTDFTLKISRVEAEDVGVYYCSQNTHVPPTFGQGTKVEIERTVAAPSVFIFPPSDEQLKSGTASVVCLLNNFYPREAKVQWKVDNALQSGNSQESVTEQDSKDSTYSLSSTLTLSKADYEKHKVYACEVTHQGLSSPVTKSFNRGEC
[1]
  He/Con 2aH: 72.4 % of control
[2]
  He/Con 2aR: 102 % of control
[3]
  He/Con 2b: 122 % of control
[4]
  He/Con 1a: 101 % of control
[5]
  He/Con 3a: 98.2 % of control

B4: GpH7-A5/GpH7-B3 variant P238_10E/GpL16-k0 (antibody, human IgG1, kappa)
heavy 1: not shown
heavy 2: not shown
light: DIVMTQSPLSLPVTPGEPASISCQASESLVHSNRNTYLHWYLQKPGQSPQLLIYKVSNRFSGVPDRFSGSGSGTDFTLKISRVEAEDVGVYYCSQNTHVPPTFGQGTKVEIERTVAAPSVFIFPPSDEQLKSGTASVVCLLNNFYPREAKVQWKVDNALQSGNSQESVTEQDSKDSTYSLSSTLTLSKADYEKHKVYACEVTHQGLSSPVTKSFNRGEC
[1]
  He/Con 2aH: 74.6 % of control
[2]
  He/Con 2aR: 142 % of control
[3]
  He/Con 2b: 235 % of control
[4]
  He/Con 1a: 105 % of control
[5]
  He/Con 3a: 98.9 % of control

B5: GpH7-A5/GpH7-B3 variant P238_19Q/GpL16-k0 (antibody, human IgG1, kappa)
heavy 1: not shown
heavy 2: not shown
light: DIVMTQSPLSLPVTPGEPASISCQASESLVHSNRNTYLHWYLQKPGQSPQLLIYKVSNRFSGVPDRFSGSGSGTDFTLKISRVEAEDVGVYYCSQNTHVPPTFGQGTKVEIERTVAAPSVFIFPPSDEQLKSGTASVVCLLNNFYPREAKVQWKVDNALQSGNSQESVTEQDSKDSTYSLSSTLTLSKADYEKHKVYACEVTHQGLSSPVTKSFNRGEC
[1]
  He/Con 2aH: 54.5 % of control
[2]
  He/Con 2aR: 97.8 % of control
[3]
  He/Con 2b: 112 % of control
[4]
  He/Con 1a: 101 % of control
[5]
  He/Con 3a: 52.7 % of control

B6: GpH7-A5/GpH7-B3 variant P271_03V/GpL16-k0 (antibody, human IgG1, kappa)
heavy 1: not shown
heavy 2: not shown
light: DIVMTQSPLSLPVTPGEPASISCQASESLVHSNRNTYLHWYLQKPGQSPQLLIYKVSNRFSGVPDRFSGSGSGTDFTLKISRVEAEDVGVYYCSQNTHVPPTFGQGTKVEIERTVAAPSVFIFPPSDEQLKSGTASVVCLLNNFYPREAKVQWKVDNALQSGNSQESVTEQDSKDSTYSLSSTLTLSKADYEKHKVYACEVTHQGLSSPVTKSFNRGEC
[1]
  He/Con 2aH: 85.4 % of control
[2]
  He/Con 2aR: 85.8 % of control
[3]
  He/Con 2b: 83.8 % of control
[4]
  He/Con 1a: 101 % of control
[5]
  He/Con 3a: 73.5 % of control

B7: GpH7-A5/GpH7-B3 variant P271_11K/GpL16-k0 (antibody, human IgG1, kappa)
heavy 1: not shown
heavy 2: not shown
light: DIVMTQSPLSLPVTPGEPASISCQASESLVHSNRNTYLHWYLQKPGQSPQLLIYKVSNRFSGVPDRFSGSGSGTDFTLKISRVEAEDVGVYYCSQNTHVPPTFGQGTKVEIERTVAAPSVFIFPPSDEQLKSGTASVVCLLNNFYPREAKVQWKVDNALQSGNSQESVTEQDSKDSTYSLSSTLTLSKADYEKHKVYACEVTHQGLSSPVTKSFNRGEC
[1]
  He/Con 2aH: 100 % of control
[2]
  He/Con 2aR: 97.3 % of control
[3]
  He/Con 2b: 101 % of control
[4]
  He/Con 1a: 101 % of control
[5]
  He/Con 3a: 92.5 % of control

B8: GpH7-A5/GpH7-B3 variant P271_01G/GpL16-k0 (antibody, human IgG1, kappa)
heavy 1: not shown
heavy 2: not shown
light: DIVMTQSPLSLPVTPGEPASISCQASESLVHSNRNTYLHWYLQKPGQSPQLLIYKVSNRFSGVPDRFSGSGSGTDFTLKISRVEAEDVGVYYCSQNTHVPPTFGQGTKVEIERTVAAPSVFIFPPSDEQLKSGTASVVCLLNNFYPREAKVQWKVDNALQSGNSQESVTEQDSKDSTYSLSSTLTLSKADYEKHKVYACEVTHQGLSSPVTKSFNRGEC
[1]
  He/Con 2aH: 123 % of control
[2]
  He/Con 2aR: 143 % of control
[3]
  He/Con 2b: 217 % of control
[4]
  He/Con 1a: 103 % of control
[5]
  He/Con 3a: 119 % of control

B9: GpH7-A5/GpH7-B3 variant P271_07I/GpL16-k0 (antibody, human IgG1, kappa)
heavy 1: not shown
heavy 2: not shown
light: DIVMTQSPLSLPVTPGEPASISCQASESLVHSNRNTYLHWYLQKPGQSPQLLIYKVSNRFSGVPDRFSGSGSGTDFTLKISRVEAEDVGVYYCSQNTHVPPTFGQGTKVEIERTVAAPSVFIFPPSDEQLKSGTASVVCLLNNFYPREAKVQWKVDNALQSGNSQESVTEQDSKDSTYSLSSTLTLSKADYEKHKVYACEVTHQGLSSPVTKSFNRGEC
[1]
  He/Con 2aH: 94.1 % of control
[2]
  He/Con 2aR: 88 % of control
[3]
  He/Con 2b: 86.1 % of control
[4]
  He/Con 1a: 101 % of control
[5]
  He/Con 3a: 80.2 % of control

B10: GpH7-A5/GpH7-B3 variant P271_06M/GpL16-k0 (antibody, human IgG1, kappa)
heavy 1: not shown
heavy 2: not shown
light: DIVMTQSPLSLPVTPGEPASISCQASESLVHSNRNTYLHWYLQKPGQSPQLLIYKVSNRFSGVPDRFSGSGSGTDFTLKISRVEAEDVGVYYCSQNTHVPPTFGQGTKVEIERTVAAPSVFIFPPSDEQLKSGTASVVCLLNNFYPREAKVQWKVDNALQSGNSQESVTEQDSKDSTYSLSSTLTLSKADYEKHKVYACEVTHQGLSSPVTKSFNRGEC
[1]
  He/Con 2aH: 87.7 % of control
[2]
  He/Con 2aR: 87.3 % of control
[3]
  He/Con 2b: 87 % of control
[4]
  He/Con 1a: 101 % of control
[5]
  He/Con 3a: 74 % of control

B11: GpH7-A5/GpH7-B3 variant P271_09D/GpL16-k0 (antibody, human IgG1, kappa)
heavy 1: not shown
heavy 2: not shown
light: DIVMTQSPLSLPVTPGEPASISCQASESLVHSNRNTYLHWYLQKPGQSPQLLIYKVSNRFSGVPDRFSGSGSGTDFTLKISRVEAEDVGVYYCSQNTHVPPTFGQGTKVEIERTVAAPSVFIFPPSDEQLKSGTASVVCLLNNFYPREAKVQWKVDNALQSGNSQESVTEQDSKDSTYSLSSTLTLSKADYEKHKVYACEVTHQGLSSPVTKSFNRGEC
[1]
  He/Con 2aH: 80.4 % of control
[2]
  He/Con 2aR: 109 % of control
[3]
  He/Con 2b: 135 % of control
[4]
  He/Con 1a: 100 % of control
[5]
  He/Con 3a: 97.7 % of control

B12: GpH7-A5/GpH7-B3 variant P238_15Y/GpL16-k0 (antibody, human IgG1, kappa)
heavy 1: not shown
heavy 2: not shown
light: DIVMTQSPLSLPVTPGEPASISCQASESLVHSNRNTYLHWYLQKPGQSPQLLIYKVSNRFSGVPDRFSGSGSGTDFTLKISRVEAEDVGVYYCSQNTHVPPTFGQGTKVEIERTVAAPSVFIFPPSDEQLKSGTASVVCLLNNFYPREAKVQWKVDNALQSGNSQESVTEQDSKDSTYSLSSTLTLSKADYEKHKVYACEVTHQGLSSPVTKSFNRGEC
[1]
  He/Con 2aH: 57.8 % of control
[2]
  He/Con 2aR: 147 % of control
[3]
  He/Con 2b: 221 % of control
[4]
  He/Con 1a: 104 % of control
[5]
  He/Con 3a: 61 % of control

B13: GpH7-A5/GpH7-B3 variant P271_04F/GpL16-k0 (antibody, human IgG1, kappa)
heavy 1: not shown
heavy 2: not shown
light: DIVMTQSPLSLPVTPGEPASISCQASESLVHSNRNTYLHWYLQKPGQSPQLLIYKVSNRFSGVPDRFSGSGSGTDFTLKISRVEAEDVGVYYCSQNTHVPPTFGQGTKVEIERTVAAPSVFIFPPSDEQLKSGTASVVCLLNNFYPREAKVQWKVDNALQSGNSQESVTEQDSKDSTYSLSSTLTLSKADYEKHKVYACEVTHQGLSSPVTKSFNRGEC
[1]
  He/Con 2aH: 77.1 % of control
[2]
  He/Con 2aR: 75.2 % of control
[3]
  He/Con 2b: 66.7 % of control
[4]
  He/Con 1a: 100 % of control
[5]
  He/Con 3a: 65.6 % of control

B14: GpH7-A5/GpH7-B3 variant P271_02A/GpL16-k0 (antibody, human IgG1, kappa)
heavy 1: not shown
heavy 2: not shown
light: DIVMTQSPLSLPVTPGEPASISCQASESLVHSNRNTYLHWYLQKPGQSPQLLIYKVSNRFSGVPDRFSGSGSGTDFTLKISRVEAEDVGVYYCSQNTHVPPTFGQGTKVEIERTVAAPSVFIFPPSDEQLKSGTASVVCLLNNFYPREAKVQWKVDNALQSGNSQESVTEQDSKDSTYSLSSTLTLSKADYEKHKVYACEVTHQGLSSPVTKSFNRGEC
[1]
  He/Con 2aH: 88.4 % of control
[2]
  He/Con 2aR: 93.9 % of control
[3]
  He/Con 2b: 98.7 % of control
[4]
  He/Con 1a: 102 % of control
[5]
  He/Con 3a: 83.7 % of control
